Target: the molecule itself
Assay: cryo-EM structure; TdfH-CP complex formed on a StrepTactinXT column (CP preincubated with CaCl2 and ZnCl2), eluted with desthiobiotin, in PBS pH 7.4, 0.02% LMNG; Titan Krios 300 kV; 6.1 Å; CP seen as a dimer of S100A8-S100A9 heterodimers (heterotetramer)

B1: human calprotectin (CP), heterodimer of S100A8 and S100A9 (complex)
chain 1: MLTELEKALNSIIDVYHKYSLIKGNFHAVYRDDLKKLLETECPQYIRKKGADVWFKELDINTDGAVNFQEFLILVIKMGVAAHKKSHEESHKE
chain 2: KMSQLERNIETIINTFHQYSVKLGHPDTLNQGEFKELVRKDLQNFLKKENKNEKVIEHIMEDLDTNADKQLSFEEFIMLMARLTWASHEKMHEGDEGPGHHHKPGLGEGTP
notes: S100A8, human, subunit of calprotectin; S100A9, human, subunit of calprotectin; with calcium and zinc it stands as a heterotetramer (two heterodimers) in the cryo-EM complex; also called S100A8-S100A9 heterodimer; copies: 1 + 1
For B1, the “stoichiometry N” value was 2.

Reference: PMC8803948, “TdfH selectively binds metal-loaded tetrameric calprotectin for zinc import” (Communications Biology, 2022)
